Results as given in the NTF2 design screens of Basanta et al. (2020).

Assay: protease stability score; higher = more stable; yeast display proteolysis, trypsin and chymotrypsin;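 also: relative to predicted unfolded state with 0 unfolded-like and 1 meaning tenfold more protease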

Sequence	protease stability score
DEEEIHNRLAYRLSHELLETGDWHLMILLADPHVRFEDENHEAHGREEYKEHLNEIHELLGLEKFEVRIHSWRVYDGRVIVHGHILFNGVEFNVETVSLKFNGRWIIEEQRLE	1.36
DEEEKAHEHMLRVLLHLERTGNEKALTEMADPNVRIDWNGKEDHGMEHLLRHLREIRIKNFELTDERHQGDKIELRGRLHGFIGDKHIILEVELVWRKVNGRWQLTSMHIK	1.45
DEEEKALDHAWRRFLETLKTGDERKFHELLDPNVQIDWNGRKLHGMHLIVDIIRRVKNLKSHEIHIRHITVIGDKVEFRSDIRGTVDGVDTEIHTRYLFLKIDGQWVLHHEEIV	2.22
DEEEKATHEAIEEIIETLRTGDEHIMRELMDPHVKVVQGDKEHHGRESFIKWMRLWFERAGVDQIDMRIKDHDSQGEKITLDGSLYVNGVEIDTHIISHKINGRWLNRSVIIQ	1.22
DEEEKAVKHAVERFVESTQTGNEHKLNELMDPNVRIDFNGVELIGREWFSKLLSEIRSDRFHIHDIRLQGEKADNDTREKGHVDGRTTEMTVRLIWIKFDGKWRLETVIFQ	1.01
DEEEKDAIMLSEISTHLMSTGDEHETSHNADPNTRLEYGDFEFHGREEFIKIWVEQMEKVKGMTIRLHSIHVQGDKAVSHVKIHVNGVDFHIIYIAEKFNGRWQLRSSIVI	1.06
DEEEKDAKEIFRLSHDWWRTGDEMLIHMNFDPNVRLRIGDKSSHGREDVARIIVKVYKDFGVKHFEIREVDHQGEKIKLDGVSNFNGKEVKIEISSNKVNGVWVIKEVNIQ	1.11
DEEEKDIRKALEWFWESFKTGDEDSVRKMLDPDTRIIYGDKEHHGRENASRFIHELKRRMGIKHTEIRLNSMEVQGDKVSFYTILILRFDGREIRIETHIEARKVDGRWFTTSIEFH	1.42
DEEEKDMRHVLKLWVNEFLTGNEKNLSELMDPNVRVDIDGKQLHGRETLSHKIVEDAREARVRLEVESIRVVNGKAHVDVVLRFHQGDKSDHREIRVVFRKVDGRWLLHSLEVH	1.37
DEEEKDVQKILKIMIESMKTGDEHTIERLVDPHVRLIINGKRLHGWELFVKIVHHEAEHARVDEIRIDHMHVIDGRAHLYLTIKRTVGDKHIKLDLEFIWSKFDGRWHVEEERRE	1.14
DEEEKDVRFFIKLLVHSLRTGDERALKHLLDPNVRMDINGREKIGWHQLRELLEEWRMHDIHITSVEVQGEKLFSHGLLEGVIGDKRVELEVEHTARKIDGRWIYTEVKFR	1.32
DEEEKEAEDFFHDWVHSMLTGDEDTLRRMIDPHVKIQVGDKEFHGMKWATRMYREIRIEDMRLRRVHVINGKADIHSITHTNINGRQEDIHITIIIEKVDGRWILRSVIIR	2.13
DEEEKEAKHASERINHDFLTGDWKSLEKLADPETRLIVNGRDFHGRERVLHELVRFYHELGVNHFRIRDIRVIGNKIHVDNQIDVGEKHNEMHVISSKVNGRWVLHTVELN	1.23
DEEEKEAREALEEFIRSVHTGDEDHMVWMFDPNTRIEVGDKKLHGRELAEEFAERWKKHIRLEDVNLTEVHVQGEKVHIRGILHGTVGDKEVRRESEVMMLKVDGRWFLHSIKFK	0.463
DEEEKEATHYLELFWKLKETGDWDELHRLLDPNVRLRINGKDVHGMERVTEEHLKRMKEIRIRHYHLDELRVQGDFVHIDVRVNGEIDGKRNMIEFHFHARKVDGRWFLHEVRIR	1.79
DEEEKEAVRHWELFMKAELTGDEEKLKNLADPNTRILFNGVEQIGWEELIRKLREIRIKLHDYRVHQVDRIDGRVILDFRVDIILYVGDKFFKHEIRVHVFILKYDGKWILEYEEIK	0.736
DEEEKEAYIWLELLLEHERTGNEEEIMHLADPHTRLQFNGVESHGRERFFEHVRHKIRHMRVEIRIRNFEFQGEYAHLHGEDILRIGDKTERIDMRFVLLVVNGRIKSIHIHVH	0.694
DEEEKEDHKMLHDFIHLWLTGDEEDWSHLADPRTRLILIQGDKVIDRHGMELASEELRRILEEMRVDDFKVEHVEVINGKSKVHGKTDVTFNGKREIIDIHIELHVVNGRMKTVKMVWI	0.927

Sequence	protease stability score
DEEEKEFEFAEQVLKESLLTGDERTLKELMDPHVRLEQGDKLYIGRESFIKWWSKRREELGINHLHYRIKEVHIVNGRVRVNSHIEIIIGDKRHEEKVHFVLLKINGRWLMESVHME	1.46
DEEEKEIKEMLHEYLRAVETGDEHTLHRLMDPHVRIDVNGRQVVGREEWLKILRELGIKVSELIFRDIKFQGDKVNIDAEERLHYNGRTVTTRVTITAWKYDGRWTVQSKKVD	2.04
DEEEKEIRHQAEHWFHIILTGDEDTLRNLADPNVRSVWVIGDYERHEHGMDEHNKILKEWRFEEYRRDSIHAINGRVHLDIRSVMTINGKRMSFRIHIDIHVVNGVRKSITIRIE	0.702
DEEEKEMKEALHEQKRSHETGDERVLEELIDPNVRLDINGREHHGREEAIRLWHELGIDHFDIRDFRVVNGRAHIDGHMVINGQRVDVTLIVHKINGRWRQHHIVVR	0.04
DEEEKEMKEIMHMLDHWLRTGDEETLNHYLDPNVRLIIFIDGRNLTSIGREESRELWRYVVEEWRIHDMHVTEVRSQGDKAESNTRLKGHVNGVERTLIQHIEVDVVDGRIKRIIIRVH	2.1
DEEEKEMRELFHHIIRLIDTGDFDTLKQLADPNTQLHIGDKHSHGREEVVRMNRHWRYHDSKIRDSHVVNGVIHVDAESNLKFDGVRTVTHVRLILYVVDGRLKSLEIRIE	0.44
DEEEKESEEAFRIHKEVLETGDEHLIERMLDPNTRIIIGDKNIHGRESALETMIKLGVKHVHIRRWNDFNGRAENDVQMRFNGRTHEVHLFALKFNGRWLMHEIEFR	1.25
DEEEKESRLALEEFLTMMKTGDEDRFTELADPHARSHYNGREHHGREVFLDWFRRVKGLKVDLQHVKTFNGRIIIHVRFHYDGVTYYVEIFVEKFDGRWYLTRVHHI	0.421
DEEEKEVHKFMDLLVRALETGDEDEFLSLVDPNARVEIGDKLLHGRESEHWLTEHIKKVAGVERFTHHIHLKDWTIFNGRVRVDGILHLDYGNFHVERRSDFIIYKVDGRWIMRSERVH	0.185
DEEEKFSREVMELHIELWETGDEDTLTRLADPHAKFVLEWNGRNHTNHGMDVLIHMLHRLLKELGIKHTELRRKDVIGDKNHIHRRVIVNGVPTDLDLELVIIDGKLREYRIHIRIR	1.56
DEEEKHARKVFRELEESLRTGDEHSMRRLLDPHTKIIINGQEHVGMEHADKFVHELRLKDSKIRHLEMHVIDGQAHLKMDVDVEGNFNGRDTRDRVTEIWIVDKINGRWLVSEVRFVKR	1.13
DEEEKHDTFMTEIFKEIYQTGDEDALATMADPDTRLIIRIGDYTEENHGWKFFIEKLMRLIRKVKNLRYIETRDHVFDGQSHIHGILIINGRKREVEIIIYIFDGRIKSIEIRIV	1.79
DEEEKHHHELFKEWSRSLITGDFTTMERMIDPNARFEINGVEFHGMDTLRKFTEHLGWEIEHVHDHRIEVYDGVDHVDTKIRGRIDGRRTETRARIILFIYDGRIKSIHEETK	0.631
DEEEKHIRKMAEDLKRAFATGDWELLLEMFDPDVRINIIVNGRIIEEHGMENHVRKHVELGITVRLKDEHVESQGNWAHHEGRLEVNVNGKEKSFDVHINLLIVNGRLKESHLKIE	2.07
DEEEKHLKKLKDMEWKLFETGNEDEIAKLADPNTRTEIDFNGVRIILHGRHVFAKYLTRWWRSLGIDHIRLEEMDIQGDYVTIRGKEDYNGKEKRVTIIIVIVDGRLKEIHVDVR	0.967
DEEEKHLRDMMEIVIKLFMTGDWDAFHEMADPDVKFQVDVGDKHIHRHGREEVVEELIRLLEHWRVRNIRIHDIKLIGDKLVVEGRWETSYGDKSHDEDVELIVIVVDGKIKKVRIIIR	2.72
DEEEKHSEDIADLMLRWWLTGDFELLAKYADPRVRLDINGREFHGREEYEEVMKDLIRRFKNVKIEIRDYEIQGEKVHVDTRLHINGKTHTVHLTFVVIDGVIKSESIRVR	1.27
DEEEKHVRKMVEIESHSHQTGDFDSIRELADPHMRIDINGVELHGWKEFERFLREIRVHHIKIKSVRDINGVAVVDTIVHGHIDGRTDTFDAHVVILKINGQWRIKSIKIE	0.918
